This is an account of results in paper doi:10.1101/2020.01.18.911131.

The experiment addresses taxol-stabilized microtubules (porcine brain tubulin) (porcine) (UniProt P02550). In words: co-sedimentation.

For the substance “chick Fmn2 FH2FSI (1148th-1587th aa) (from UniProt A0A1B2VWD2 1148-1587) (domain or fragment)”, the Kd (in general, the equilibrium constant for the complex coming apart) was found to be 1.6 µM.
Regarding “chick Fmn2 FH2_ΔFSI (1148th-1563rd aa) (from UniProt A0A1B2VWD2 1148-1563) (domain or fragment)”, the dissociation constant Kd amounted to 18.6 µM.
